Reference: patent US10450368

Columns and labels:
[1] = biological target: CH0505_CON D7gp120/293i; test: ELISA
[2] = biological target: CH505.M10D8gp120; test: ELISA
[3] = biological target: CH505.M11D8gp120/293F; test: ELISA
[4] = biological target: CH505.M19D8gp120; test: ELISA
[5] = biological target: CH505.M21D8gp120/293F; test: ELISA
[6] = biological target: CH505.M5D8gp120293F; test: ELISA
[7] = biological target: CH505.M7D8gp120/293F; test: ELISA
[8] = biological target: CH505.M9D8gp120/293F; test: ELISA
[9] = biological target: CH505.TF mutant gp120 M20 (HIV-1); test: ELISA
[10] = biological target: CH505.TF mutant gp120 M6 (HIV-1); test: ELISA
[11] = biological target: CH505.TF mutant gp120 M8 (HIV-1); test: ELISA
[12] = biological target: CH505.w30.12D8gp120; test: ELISA
[13] = biological target: CH505w020.14D8gp120; test: ELISA
[14] = biological target: CH505w030.20D8gp120/293F; test: ELISA
[15] = biological target: CH505w136.B18D8gp120; test: ELISA
[16] = biological target: Centromere B (UniProt P07199); test: AtheNA, Ab 25 ug/ml
[17] = biological target: Histones; test: AtheNA, Ab 25 ug/ml
[18] = biological target: Jo-1 (UniProt P12081); test: AtheNA, Ab 25 ug/ml
[19] = biological target: RNP (ribonucleoprotein); test: AtheNA, Ab 25 ug/ml
[20] = biological target: SSA; test: AtheNA, Ab 25 ug/ml
[21] = biological target: SSB (UniProt P05455); test: AtheNA, Ab 25 ug/ml
[22] = biological target: Scl-70 (UniProt P11387); test: AtheNA, Ab 25 ug/ml
[23] = biological target: Sm (Smith antigen); test: AtheNA, Ab 25 ug/ml
[24] = biological target: Centromere B (UniProt P07199); test: AtheNA, Ab 50 ug/ml
[25] = biological target: Histones; test: AtheNA, Ab 50 ug/ml
[26] = biological target: RNP (ribonucleoprotein); test: AtheNA, Ab 50 ug/ml
[27] = biological target: Sm (Smith antigen); test: AtheNA, Ab 50 ug/ml
[28] = biological target: Centromere B (UniProt P07199); test: AtheNA, Ab 12.5 ug/ml
[29] = biological target: Histones; test: AtheNA, Ab 12.5 ug/ml
[30] = biological target: Jo-1 (UniProt P12081); test: AtheNA, Ab 12.5 ug/ml
[31] = biological target: RNP (ribonucleoprotein); test: AtheNA, Ab 12.5 ug/ml
[32] = biological target: SSA; test: AtheNA, Ab 12.5 ug/ml
[33] = biological target: SSB (UniProt P05455); test: AtheNA, Ab 12.5 ug/ml
[34] = biological target: Scl-70 (UniProt P11387); test: AtheNA, Ab 12.5 ug/ml
[35] = biological target: Sm (Smith antigen); test: AtheNA, Ab 12.5 ug/ml
[36] = biological target: Centromere B (UniProt P07199); test: AtheNA, Ab 6.25 ug/ml
[37] = biological target: Histones; test: AtheNA, Ab 6.25 ug/ml
[38] = biological target: Jo-1 (UniProt P12081); test: AtheNA, Ab 6.25 ug/ml
[39] = biological target: RNP (ribonucleoprotein); test: AtheNA, Ab 6.25 ug/ml
[40] = biological target: SSA; test: AtheNA, Ab 6.25 ug/ml
[41] = biological target: SSB (UniProt P05455); test: AtheNA, Ab 6.25 ug/ml
[42] = biological target: Scl-70 (UniProt P11387); test: AtheNA, Ab 6.25 ug/ml
[43] = biological target: Sm (Smith antigen); test: AtheNA, Ab 6.25 ug/ml
[44] = biological target: Centromere B (UniProt P07199); test: AtheNA, Ab 25 ug/ml; remark: listed apart in the source
[45] = biological target: Histones; test: AtheNA, Ab 25 ug/ml; remark: listed apart in the source
[46] = biological target: Jo-1 (UniProt P12081); test: AtheNA, Ab 25 ug/ml; remark: listed apart in the source
[47] = biological target: RNP (ribonucleoprotein); test: AtheNA, Ab 25 ug/ml; remark: listed apart in the source
[48] = biological target: SSA; test: AtheNA, Ab 25 ug/ml; remark: listed apart in the source
[49] = biological target: SSB (UniProt P05455); test: AtheNA, Ab 25 ug/ml; remark: listed apart in the source
[50] = biological target: Scl-70 (UniProt P11387); test: AtheNA, Ab 25 ug/ml; remark: listed apart in the source
[51] = biological target: Sm (Smith antigen); test: AtheNA, Ab 25 ug/ml; remark: listed apart in the source
[52] = biological target: Centromere B (UniProt P07199); test: AtheNA, Ab 50 ug/ml; remark: listed apart in the source
[53] = biological target: Histones; test: AtheNA, Ab 50 ug/ml; remark: listed apart in the source
[54] = biological target: Jo-1 (UniProt P12081); test: AtheNA, Ab 50 ug/ml
[55] = biological target: RNP (ribonucleoprotein); test: AtheNA, Ab 50 ug/ml; remark: listed apart in the source
[56] = biological target: SSA; test: AtheNA, Ab 50 ug/ml
[57] = biological target: SSB (UniProt P05455); test: AtheNA, Ab 50 ug/ml
[58] = biological target: Scl-70 (UniProt P11387); test: AtheNA, Ab 50 ug/ml
[59] = biological target: Sm (Smith antigen); test: AtheNA, Ab 50 ug/ml; remark: listed apart in the source

Sequence of SSB (P05455 whole entry): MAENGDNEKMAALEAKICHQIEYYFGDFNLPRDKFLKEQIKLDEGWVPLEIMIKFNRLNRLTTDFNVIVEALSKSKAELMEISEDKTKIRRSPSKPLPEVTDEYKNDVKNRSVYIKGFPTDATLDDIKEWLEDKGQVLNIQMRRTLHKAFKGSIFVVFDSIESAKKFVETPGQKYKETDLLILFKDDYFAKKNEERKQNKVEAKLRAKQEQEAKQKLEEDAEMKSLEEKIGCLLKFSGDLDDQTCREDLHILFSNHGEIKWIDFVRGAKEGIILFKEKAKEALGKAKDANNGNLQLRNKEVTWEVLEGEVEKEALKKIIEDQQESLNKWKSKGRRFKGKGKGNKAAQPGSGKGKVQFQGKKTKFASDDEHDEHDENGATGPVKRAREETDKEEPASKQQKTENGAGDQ
Sequence of Jo-1 (P12081 whole entry): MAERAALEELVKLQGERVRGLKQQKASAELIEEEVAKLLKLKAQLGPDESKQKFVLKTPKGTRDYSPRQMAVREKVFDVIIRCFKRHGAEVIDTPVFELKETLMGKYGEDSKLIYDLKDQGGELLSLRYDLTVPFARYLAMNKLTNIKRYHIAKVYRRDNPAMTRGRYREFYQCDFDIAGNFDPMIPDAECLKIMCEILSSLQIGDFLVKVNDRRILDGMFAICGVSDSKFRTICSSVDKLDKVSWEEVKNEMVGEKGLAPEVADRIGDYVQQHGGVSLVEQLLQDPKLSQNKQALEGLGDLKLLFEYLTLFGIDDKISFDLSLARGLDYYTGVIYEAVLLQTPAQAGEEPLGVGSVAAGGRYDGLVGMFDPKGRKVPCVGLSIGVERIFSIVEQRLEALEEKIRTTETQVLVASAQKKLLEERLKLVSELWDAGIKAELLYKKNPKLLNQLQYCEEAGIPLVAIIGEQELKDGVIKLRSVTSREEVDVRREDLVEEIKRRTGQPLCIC
Sequence of Scl-70 (P11387 whole entry): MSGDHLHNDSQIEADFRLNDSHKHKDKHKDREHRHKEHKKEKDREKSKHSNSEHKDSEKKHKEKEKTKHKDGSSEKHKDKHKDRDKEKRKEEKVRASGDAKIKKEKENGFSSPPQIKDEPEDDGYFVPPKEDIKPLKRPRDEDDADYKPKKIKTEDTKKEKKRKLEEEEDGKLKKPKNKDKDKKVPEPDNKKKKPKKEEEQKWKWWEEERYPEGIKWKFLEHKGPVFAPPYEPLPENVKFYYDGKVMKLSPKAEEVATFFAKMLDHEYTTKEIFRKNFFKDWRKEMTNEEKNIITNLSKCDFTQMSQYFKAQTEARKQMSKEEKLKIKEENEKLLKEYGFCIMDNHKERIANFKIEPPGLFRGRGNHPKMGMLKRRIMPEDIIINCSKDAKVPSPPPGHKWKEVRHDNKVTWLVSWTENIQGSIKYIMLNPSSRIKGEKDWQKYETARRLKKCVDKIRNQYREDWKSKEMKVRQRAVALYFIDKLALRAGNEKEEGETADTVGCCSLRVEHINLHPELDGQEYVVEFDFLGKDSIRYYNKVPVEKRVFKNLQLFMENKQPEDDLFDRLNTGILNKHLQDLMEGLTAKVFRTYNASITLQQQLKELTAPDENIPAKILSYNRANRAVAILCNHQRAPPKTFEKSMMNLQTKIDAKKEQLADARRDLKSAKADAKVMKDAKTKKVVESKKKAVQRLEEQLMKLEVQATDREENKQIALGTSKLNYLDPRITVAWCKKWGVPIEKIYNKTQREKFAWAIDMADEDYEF
Sequence of Centromere B (P07199 whole entry): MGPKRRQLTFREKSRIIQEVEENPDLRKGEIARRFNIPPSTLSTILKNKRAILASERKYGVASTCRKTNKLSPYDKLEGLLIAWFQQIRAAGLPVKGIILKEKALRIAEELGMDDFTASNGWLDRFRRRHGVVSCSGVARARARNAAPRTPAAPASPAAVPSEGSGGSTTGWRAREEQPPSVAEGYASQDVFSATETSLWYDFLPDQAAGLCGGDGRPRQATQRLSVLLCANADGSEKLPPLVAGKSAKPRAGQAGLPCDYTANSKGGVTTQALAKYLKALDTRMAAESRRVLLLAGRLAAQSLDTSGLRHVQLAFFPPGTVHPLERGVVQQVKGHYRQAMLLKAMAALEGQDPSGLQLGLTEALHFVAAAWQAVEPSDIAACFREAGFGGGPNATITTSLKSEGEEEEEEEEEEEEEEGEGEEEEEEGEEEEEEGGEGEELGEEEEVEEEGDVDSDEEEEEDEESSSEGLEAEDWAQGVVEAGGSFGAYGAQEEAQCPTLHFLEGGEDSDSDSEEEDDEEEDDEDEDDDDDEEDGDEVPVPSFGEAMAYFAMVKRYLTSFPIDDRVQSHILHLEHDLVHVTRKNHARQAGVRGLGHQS

CH235 IA2 (antibody)
LogAUC [1]: 4.77
LogAUC [2]: 0.43
LogAUC [3]: 0
LogAUC [4]: 0
LogAUC [5]: 0
LogAUC [6]: 6.95
LogAUC [7]: 0
LogAUC [8]: 0
LogAUC [9]: 0
LogAUC [10]: 1.22
LogAUC [11]: 0
LogAUC [12]: 0
LogAUC [13]: 1.22
LogAUC [14]: 0.53
LogAUC [15]: 0
AtheNA signal (relative luminescence units) [16]: 228
AtheNA signal (relative luminescence units) [17]: 302
AtheNA signal (relative luminescence units) [18]: 26
AtheNA signal (relative luminescence units) [19]: 93
AtheNA signal (relative luminescence units) [20]: 43
AtheNA signal (relative luminescence units) [21]: 36
AtheNA signal (relative luminescence units) [22]: 49
AtheNA signal (relative luminescence units) [23]: 256
AtheNA signal (relative luminescence units) [24]: 256
AtheNA signal (relative luminescence units) [25]: 371
AtheNA signal (relative luminescence units) [26]: 101
AtheNA signal (relative luminescence units) [27]: 259
AtheNA signal (relative luminescence units) [28]: 225
AtheNA signal (relative luminescence units) [29]: 287
AtheNA signal (relative luminescence units) [30]: 20
AtheNA signal (relative luminescence units) [31]: 85
AtheNA signal (relative luminescence units) [32]: 34
AtheNA signal (relative luminescence units) [33]: 31
AtheNA signal (relative luminescence units) [34]: 44
AtheNA signal (relative luminescence units) [35]: 279
AtheNA signal (relative luminescence units) [36]: 183
AtheNA signal (relative luminescence units) [37]: 207
AtheNA signal (relative luminescence units) [38]: 12
AtheNA signal (relative luminescence units) [39]: 66
AtheNA signal (relative luminescence units) [40]: 18
AtheNA signal (relative luminescence units) [41]: 15
AtheNA signal (relative luminescence units) [42]: 28
AtheNA signal (relative luminescence units) [43]: 204

DH270IA1 (antibody)
AtheNA signal [44]: 5
AtheNA signal [45]: 4
AtheNA signal [46]: 3
AtheNA signal [47]: 2
AtheNA signal [48]: 3
AtheNA signal [49]: 6
AtheNA signal [50]: 1
AtheNA signal [51]: 5
AtheNA signal [52]: 10
AtheNA signal [53]: 9
AtheNA signal [54]: 5
AtheNA signal [55]: 2
AtheNA signal [56]: 5
AtheNA signal [57]: 6
AtheNA signal [58]: 4
AtheNA signal [59]: 5
AtheNA signal [28]: 3
AtheNA signal [29]: 4
AtheNA signal [30]: 6
AtheNA signal [31]: 3
AtheNA signal [32]: 3
AtheNA signal [33]: 6
AtheNA signal [34]: 2
AtheNA signal [35]: 5
AtheNA signal [36]: 2
AtheNA signal [37]: 2
AtheNA signal [38]: 5
AtheNA signal [39]: 2
AtheNA signal [40]: 5
AtheNA signal [41]: 1
AtheNA signal [42]: 2
AtheNA signal [43]: 3
